Where a chain is given by its changes, count along the chain named. Numbers in names are those of the source. Where two headings read alike, the source gives them in different places.
T1: 6His-OspR (Pseudomonas aeruginosa MPAO1, UniProt Q9I018 1-163)
T1 sequence: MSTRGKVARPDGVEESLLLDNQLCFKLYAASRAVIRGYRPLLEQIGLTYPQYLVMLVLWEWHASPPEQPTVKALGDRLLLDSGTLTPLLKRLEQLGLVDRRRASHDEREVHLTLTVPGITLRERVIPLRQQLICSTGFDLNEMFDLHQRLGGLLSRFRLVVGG

T2: 6His-OspR C24S (Pseudomonas aeruginosa MPAO1, UniProt Q9I018 1-163, C24S)
T2 sequence: T1 sequence with C24S

B1: 6His-OspR C24S (natural protein, Pseudomonas aeruginosa MPAO1, UniProt Q9I018 1-163, looked up)
chain: T1 sequence with C24S
B2: B2 (PA2826 promoter, 43 bp) (dsDNA)
DNA 1: TTCAATCAAGTTGTGTGCAATTGAATTGCGAGCTACTTTATTT
DNA 2: AAATAAAGTAGCTCGCAATTCAATTGCACACAACTTGATTGAA
B3: B2d (B2 lacking AATTnAATT, 34 bp) (dsDNA)
DNA 1: TTCAATCAAGTTGTGTGCGCGAGCTACTTTATTT
DNA 2: AAATAAAGTAGCTCGCGCACACAACTTGATTGAA
B4: hmgA-p (PA2009-PA2010 intergenic, 70 bp) (dsDNA)
DNA 1: TGGCACGCTGGCTGCGTTATTTTTATCGTAATTCAATTACGCATAACGTAATTTGAGTGGAAGGCAGCGT
DNA 2: ACGCTGCCTTCCACTCAAATTACGTTATGCGTAATTGAATTACGATAAAAATAACGCAGCCAGCGTGCCA
B5: PA1897-p (70 bp) (dsDNA)
DNA 1: GGCAGGTTGTCCCTGCCGGGCTGTGACAATTTAATTCGACCAGGCATTTCATTGTCCGTGCCGATTTTCA
DNA 2: TGAAAATCGGCACGGACAATGAAATGCCTGGTCGAATTAAATTGTCACAGCCCGGCAGGGACAACCTGCC

Legend:
cross-linking = biological target: the molecule itself; test: cross-linking
6His-OspR [1] = biological target: T1, 6His-OspR; test: EMSA
6His-OspR C24S = biological target: T2, 6His-OspR C24S; test: EMSA
6His-OspR [2] = biological target: T1, 6His-OspR; test: EMSA; remark: listed apart in the source

Binder | binding result (6His-OspR [2]) | further results
B1 |  | binding result (cross-linking): binds
B2 |  | binding result (6His-OspR [1]): binds; binding result (6His-OspR C24S): binds
B3 | no binding | 
B4 | binds | 
B5 | binds | 
